This is an account of results in patent US20140105889A1 (published 2014).

Assay [1] has as its target T1, human FcγRIIIa(F) (human, UniProt P08637 17-208, limits assumed).
T1 construct: also called FcgRIIIaF; hFcgRIIIa(F)
The assay is described as follows: SPR (Biacore T100), antibody captured by Protein A, FcγR as analyte, HBS-EP+, 25°C, 1:1 Langmuir global fit.
Protocol: (§1) Next, interaction between these antibodies and FcγR was analyzed kinetically using the Biacore T100 (GE Healthcare). The interaction was measured at a temperature of 25° C. using HBS-EP+ (GE Healthcare) for the running buffer. The Series S Sensor Chip CM5 (GE Healthcare) was used after immobilizing Protein A by amine coupling. […] Antibody captured on the chip was washed by allowing 10 mM glycine-HCl (pH 1.5) to react following measurement. The chip regenerated in this manner was used repeatedly. The dissociation constant KD (mol/L) was calculated from the association rate constant ka (L/mol/s) and dissociation rate constant kd (1/s) as calculated by global-fitting the measurement results with a 1:1 Langmuir binding model using the Biacore

Assay [2] deals with T1, human FcγRIIIa(F). As to the kind of experiment: SPR (Biacore T100), antibody captured by Protein A, FcγR as analyte, 25°C; weak binding, KD calculated by Equation 5 (1:1 binding model).
Protocol: as §1
Assay [3] deals with T1, human FcγRIIIa(F). The assay is described as follows: SPR (Biacore T100), ratio of the KD values of Table 24, reference IgG1 (IL6R-G1d/IL6R-L). (In general: SPR reads the build-up and loss of mass on a sensor chip optically.)
Protocol: as §1
Assay [4] addresses T2, mouse FcγRIV (mouse).
T2 construct: Bought soluble receptor; also called mFcgRIV; mFcgR IV
The assay is described as follows: SPR (Biacore), antibody captured on Protein L, mouse FcγR as analyte, pH 7.4, 25 C (method of Example 4, RU).
Protocol: (§2) Binding activity between the antibodies and mouse FcγRI, FcγRII, FcγRIII and FcγRIV (R&D Systems, Sin θ Biological) (hereinafter referred to as mouse FcγRs) was evaluated using the Biacore T100 or T200 (GE Healthcare). The antibodies being tested were captured by Protein L (ACTIGEN) that was immobilized in suitable amounts on the CM4 Sensor Chip (GE Healthcare) by amine coupling. Next, the diluted mouse FcγRs and a running buffer used as a blank were injected to allow interaction with the antibody captured on the sensor chip. A buffer consisting of 20 mmol/L ACES, 150 mmol/L NaCl and 0.05% (w/v) Tween 20 (pH 7.4) was used for the running buffer, and this buffer was also used to dilute the mouse FcγRs. 10 mmol/L glycine-HCl (pH 1.5) was used to regenerate the sensor chip. All measurements were carried out at 25° C.

Assay [5] concerns the target T2, mouse FcγRIV. As to the kind of experiment: SPR (Biacore), antibody captured on Protein L, mouse FcγR as analyte, pH 7.4, 25 C.
Protocol: as §2
In assay [6] the target is T3, human FcRn (human).
T3 construct: Soluble human FcRn complexed with β2-microglobulin; also called hFcRn; soluble human FcRn complexed with β2-microglobulin
T3 sequence (chain, as listed by the source limits assumed, chain 1 of 2): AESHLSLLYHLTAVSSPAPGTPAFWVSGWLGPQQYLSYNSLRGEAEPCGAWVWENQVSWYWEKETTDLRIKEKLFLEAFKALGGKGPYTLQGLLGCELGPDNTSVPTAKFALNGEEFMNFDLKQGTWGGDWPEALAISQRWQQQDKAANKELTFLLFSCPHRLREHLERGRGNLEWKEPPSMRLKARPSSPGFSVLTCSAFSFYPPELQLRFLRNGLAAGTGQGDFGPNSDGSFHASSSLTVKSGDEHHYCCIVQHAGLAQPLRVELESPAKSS
T3 sequence (P61769 21-119 limits assumed, chain 2 of 2): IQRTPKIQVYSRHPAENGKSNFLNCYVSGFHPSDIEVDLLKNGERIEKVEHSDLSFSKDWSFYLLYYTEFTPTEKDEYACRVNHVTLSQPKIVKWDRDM
The assay is described as follows: SPR (Biacore), antibody captured by Protein L, human FcRn as analyte, pH 7.0.
Protocol: (§3) A kinetic analysis of binding between human FcRn and the aforementioned antibodies was carried out using the Biacore T100 or T200 (GE Healthcare). The antibodies being tested were captured on the CM4 Sensor Chip (GE Healthcare) on which a suitable amount of Protein L (ACTIGEN) was suitably immobilized by amine coupling. Next, diluted human FcRn and a running buffer used as a blank were injected to allow the human FcRn to interact with the antibody captured on the sensor chip. A buffer consisting of 50 mmol/L sodium phosphate, 150 mmol/L NaCl and 0.05% (w/v) Tween 20 (pH 7.0 or pH 7.4) was used for the running buffer, and each buffer was also used to dilute the human FcRn. 10 mmol/L glycine-HCl (pH 1.5) was used to regenerate the sensor chip. All measurements of binding were carried out at 25° C. The KD(M) of each antibody to human FcRn was calculated based on kinetics parameters, i.e., the association rate constant ka (1/Ms) and the dissociation rate constant kd (1/s) calculated from a sensorgram obtained by the measurement. The Biacore T100 or T200 Evaluation Software (GE Healthcare) was used to calculate each parameter.

For assay [7], the target named is T3, human FcRn. The description is as above. This is another data set of the same source.
Protocol: as §3

Where a chain is given by its changes, count along the chain named. Numbers in names are those of the source. Read-outs that look alike come from different tables or passages of the source.

T1 sequence (P08637 other isoform, or with tags, fused parts or gaps limits assumed): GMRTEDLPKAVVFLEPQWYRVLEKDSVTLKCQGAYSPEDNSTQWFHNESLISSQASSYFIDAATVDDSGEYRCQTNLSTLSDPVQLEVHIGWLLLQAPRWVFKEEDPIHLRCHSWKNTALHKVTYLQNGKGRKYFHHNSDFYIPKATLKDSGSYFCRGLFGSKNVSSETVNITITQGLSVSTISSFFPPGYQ
T2 sequence (A0A0B4J1G0 21-203): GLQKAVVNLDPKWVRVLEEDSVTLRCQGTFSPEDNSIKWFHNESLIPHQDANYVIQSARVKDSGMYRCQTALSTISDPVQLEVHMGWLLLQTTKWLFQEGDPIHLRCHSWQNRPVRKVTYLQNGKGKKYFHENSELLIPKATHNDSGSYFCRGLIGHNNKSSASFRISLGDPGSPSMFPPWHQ

B1: IgG1 (IL6R-G1d / IL6R-L) (antibody)
heavy: not shown
light: DIQMTQSPSSLSASVGDRVTITCRASQDISSYLNWYQQKPGKAPKLLIYYTSRLHSGVPSRFSGSGSGTDFTFTISSLQPEDIATYYCQQGNTLPYTFGQGTKVEIK
notes: Anti-human IL-6 receptor antibody; G1d constant region (IgG1 without C-terminal Gly and Lys); L chain of tocilizumab
In the case of B1, in assay [1], the Kd (as a rule, a measure of binding affinity in units of concentration) turned out to be 3100 nM.

B2: IgG1-v2 (IL6R-G1d_v2 / IL6R-L) (antibody)
heavy: not shown
light: B1 light
notes: IL6R-G1d with L328E (EU numbering)
B2: the Kd in assay [2] was 23000 nM. The “relative KD (KD of IgG1 / KD of the variant)” value in assay [3] turned out to be 0.14 fold.

B3: IgG1-v1 (IL6R-G1d_v1 / IL6R-L) (antibody)
heavy: not shown
light: B1 light
notes: IL6R-G1d with P238D (EU numbering)
As for B3, in assay [2], the Kd is 51000 nM. Besides, the “relative KD (KD of IgG1 / KD of the variant)” value in assay [3] came to 0.061 fold.

B4: IgG1-v3 (IL6R-G1d_v3 / IL6R-L) (antibody)
heavy: not shown
light: B1 light
notes: IL6R-G1d with S267E/L328F (EU numbering)
B4: the “relative KD (KD of IgG1 / KD of the variant)” value in assay [3] was determined as 0.35 fold. The affinity in assay [1], expressed as Kd, was 8800 nM.

B5: antibody with VH3-IgG1-F947 heavy chain and L(WT)-CK light chain (antibody)
heavy: QVQLQESGPGLVKPSETLSLTCAVSGHSISHDHAWSWVRQPPGEGLEWIGFISYSGITNYNPSLQGRVTISRDNSKNTLYLQMNSLRAEDTAVYYCARSLARTTAMDYWGEGTLVTVSSASTKGPSVFPLAPSSKSTSGGTAALGCLVKDYFPEPVTVSWNSGALTSGVHTFPAVLQSSGLYSLSSVVTVPSSSLGTQTYICNVNHKPSNTKVDKKVEPKSCDKTHTCPPCPAPELLGGPSVFLFPPKPKDVLYISRTPEVTCVVVDVSHEDPEVKFNWYVDGVEVHNAKTKPREEQYNSTYRVVSVLQPLHADWLNGKEYKCKVSNKALPAPIEKTISKAKGQPREPQVYTLPPSRDELTKNQVSLTCLVKGFYPSDIAVEWESNGQPENNYKTTPPVLDSDGSFFLYSKLTVDKSRWQQGNVFSCSVMHEALHYHVTQKSLSLSP
light: not shown
notes: copies: 2 + 2
For B5, the “BINDING AMOUNT” value in assay [4] was 279. Also, in assay [5], the “BINDING AMOUNT (RU)” value was 242 RU.

B6: IgG1-F1335 (antibody, name in EU numbering)
heavy: B5 heavy with L237R, G238R, S241K, V252T, S256T, Q309T, P310V, A313Q, Q440K, S442D
light: not shown
notes: light chain L(WT)-CK; copies: 2 + 2
In assay [6], B6 came in with a Kd of 87.8 nM.

B7: IgG1-F1311 (antibody, name in EU numbering)
heavy: B5 heavy with L237R, S241K, V252T, Q309T, P310V, A313Q, V424A, S426A, H435D
light: not shown
notes: as for B6
B7: the Kd in assay [7] was found to be 169 nM.

B8: IgG1-F1289 (antibody, name in EU numbering)
heavy: B5 heavy with L237R, S241K, V252T, T258E, Q309T, P310V, A313Q, H435D, Q440R, S442E
light: not shown
notes: as for B6
With B8, the affinity in assay [7], expressed as Kd, was 133 nM.

B9: IgG1-F1339 (antibody, name in EU numbering)
heavy: QVQLQESGPGLVKPSETLSLTCAVSGHSISHDHAWSWVRQPPGEGLEWIGFISYSGITNYNPSLQGRVTISRDNSKNTLYLQMNSLRAEDTAVYYCARSLARTTAMDYWGEGTLVTVSSASTKGPSVFPLAPSSKSTSGGTAALGCLVKDYFPEPVTVSWNSGALTSGVHTFPAVLQSSGLYSLSSVVTVPSSSLGTQTYICNVNHKPSNTKVDKKVEPKSCDKTHTCPPCPAPELRGGPKVFLFPPKPKDTLYITREPEVTCVVVDVSHEDPEVKFNWYVDGVEVHNAKTKPREEQYNSTYRVVSVLTVLHQDWLNGKEYKCKVSNKALPAPIEKTISKAKGQPREPQVYTLPPSRDELTKNQVSLTCLVKGFYPSDIAVEWESNGQPENNYKTTPPVLDSDGSFFLYSKLTVDKSRWQQGNVFSCSVMHEALDYHTTKKELSLSP
light: not shown
notes: as for B6
Consider B9, for which, in assay [6], the Kd is 251 nM.

B10: IgG1-F1340 (antibody, name in EU numbering)
heavy: B9 heavy with D435H, T438V
light: not shown
notes: as for B6
In assay [6], B10 showed a Kd of 55.8 nM.

B11: antibody with VH3-IgG1-F1326 heavy chain and L(WT)-CK light chain (antibody)
heavy: B5 heavy with L236A, L237A
light: not shown
notes: copies: 2 + 2
As to B11, in assay [4], the “BINDING AMOUNT” value amounted to 85.6.

B12: IgG1-F1288 (antibody, name in EU numbering)
heavy: B9 heavy with T256S, D435H, T438V, E442D
light: not shown
notes: as for B6
Regarding B12, the equilibrium dissociation constant (Kd) in assay [7] is 79.5 nM.
